Test results as given in patent publication US12269859B2, “Synthetic immune receptors and methods of use thereof” (Angeles Therapeutics, Inc., priority 2016, dated 2025).

Test system: target antigen-expressing cell line
Test: Jurkat NFAT-GFP assay, coculture with target cell lines expressing the respective target antigen (summary Table 10A)
Type: cell-based, human
Design: key: The signs +/−, +, 2+ etc. after the name of the cell lines indicate the relative degree of positivity on the Jurkat-NFAT-GFP assay as measured by the % GFP positive cells; +: relative degree of positivity on the Jurkat-NFAT-GFP assay as measured by the % GFP positive cells; 2+: relative degree of positivity on the Jurkat-NFAT-GFP assay as measured by the % GFP positive cells
Conditions: relative % GFP positive cells; for NFAT-GFP ASSAY Positive Cell lines: HEL: SIR-expressing Jurkat-NFAT-GFP cells cocultured with HEL; for NFAT-GFP ASSAY Positive Cell lines: RAJI: SIR-expressing Jurkat-NFAT-GFP cells cocultured with RAJI
Procedure, shortened: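 Readout is % GFP+ cells by FACS, graded +/− to 2+ relative to parental reporter cells. Jurkat-NFAT-GFP cells stably transduced with SIR constructs (puromycin-selected) were mixed with target-antigen-expressing cell lines at roughly 1:2 effector:target and cocultured ~4–18 h.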

Molecule | NFAT-GFP ASSAY Positive Cell lines: HEL | NFAT-GFP ASSAY Positive Cell lines: RAJI | NFAT-GFP ASSAY Positive Cell lines: NALM6 (SIR-expressing Jurkat-NFAT-GFP cells cocultured with NALM6)
063016-E01 (protein, Synthetic Immune Receptor (SIR)) MALPVTALLLPLALLLHAARPDEIVLTQSPATLSLSPGERATLSCSASSSVSYMHWYQQKPGQAPRLLIYDTSKLASGIPARFSGSGSGTDFTLTISSLEPEDVAVYYCFQGSVYPFTFGQGTKLEIKRGGGGSGGGGSGGGGSQVQLQESGPGLVKPSQTLSLTCTVSGGSISTSGMGVGWIRQHPGKGLEWIGHIWWDDDKRYNPALKSRVTISVDTSKNQFSLKLSSVTAADTAVYYCARMELWSYYFDYWGQGTLVTVSSLEGKPIPNPLLGLDSTGSGEDLKNVFPPEVAVFEPSEAEISHTQKATLVCLATGFYPDHVELSWWVNGKEVHSGVCTDPQPLKEQPALNDSRYCLSSRLRVSATFWQNPRNHFRCQVQFYGLSENDEWTQDRAKPVTQIVSAEAWGRADCGFTSESYQQGVLSATILYEILLGKATLYAVLVSALVLMAMVKRKDSRGRAKRSGSGATNFSLLKQAGDVEENPGPTSATMALPVTALLLPLALLLHAARPDVQLQESGPGLVKPSQSLSLTCTVTGYSITSDYTWNWIRQFPGNKLEWMGYITYSGSTSYNPSLKSRNSITRDTSKNQFFLQLNSVTTEDTATYYCARLGRRYTMDYWGQGTSVTVSSGGGGSGGGGSGGGGSDIQMTQSSSSFSVSLGDRVTITCMASEDIYIRLAWYQQKPGNAPRLLISAATSLETGVPSRFSGSGSGKDYTLSITSLQTEDVGTYYCQQYWSSPWTFGGGTKLEINTREQKLISEEDGSGIQNPDPAVYQLRDSKSSDKSVCLFTDFDSQTNVSQSKDSDVYITDKCVLDMRSMDFKSNSAVAWSNKSDFACANAFNNSIIPEDTFFPSPESSCDVKLVEKSFETDTNLNFQNLSVIGFRILLLKVAGFNLLMTLRLWSSRAKRSGSGVKQTLNFDLLKLAGDVESNPGPSRGHMTEYKPTVRLATRDDVPRAVRTLAAAFADYPATRHTVDPDRHIERVTELQELFLTRVGLDIGKVWVADDGAAVAVWTTPESVEAGAVFAEIGPRMAELSGSRLAAQQQMEGLLAPHRPKEPAWFLATVGVSPDHQGKGLGSAVVLPGVEAAERAGVPAFLETSAPRNLPFYERLGFTVTADVEVPEGPRTWCMTRKPGA | +/− | 2+ | –
010417-E08 (protein) MALPVTALLLPLALLLHAARPLEGKPIPNPLLGLDSTGSGEDLKNVFPPEVAVFEPSKAEIAHTQKATLVCLATGFYPDHVELSWWVNGKEVHSGVCTDPQPLKEQPALNDSRYCLSSRLRVSATFWQNPRNHFRCQVQFYGLSENDEWTQDRAKPVTQIVSAEAWGRADCGITSASYHQGVLSATILYEILLGKATLYAVLVSALVLMAMVKRKDSRGRAKRSGSGATNFSLLKQAGDVEENPGPTSTMALPVTALLLPLALLLHAARPDEIVLTQSPATLSLSPGERATLSCSASSSVSYMHWYQQKPGQAPRLLIYDTSKLASGIPARFSGSGSGTDFTLTISSLEPEDVAVYYCFQGSVYPFTFGQGTKLEIKRGGGGSGGGGSGGGGSQVQLQESGPGLVKPSQTLSLTCTVSGGSISTSGMGVGWIRQHPGKGLEWIGHIWWDDDKRYNPALKSRVTISVDTSKNQFSLKLSSVTAADTAVYYCARMELWSYYFDYWGQGTLVTVSSTREAAAKQIVLTQSPAIMSASPGEKVTISCSASSSVSYMYWYQQKPGSSPKPWIYRTSNLASGVPARFSGSGSGTSYSLTISNMEAEDAAAYYCQQYHSYPTTFGGGTKLEVKGGGGSGGGGSGGGGSEVQLVESGGGLVQPKGSLKLSCAASGFSFNTYAMNWVRQAPGKGLEWIAHIRSKSNNFATYYADSVKDRFSISRDASENILFLQMNNLKTEDTAMYYCVRQGGDFPMDYWGQGTSVTVSSTREQKLISEEDGSGIQNPDPAVYQLRDSKSSDKSVCLFTDFDSQTNVSQSKDSDVYITDKCVLDMRSMDFKSNSAVAWSNKSDFACANAFNNSIIPEDTFFPSSDVPCDVKLVEKSFETDTNLNFQNLSVIGFRILLLKVAGFNLLMTLRLWSSRAKRSGSGVKQTLNFDLLKLAGDVESNPGPSRGHMTEYKPTVRLATRDDVPRAVRTLAAAFADYPATRHTVDPDRHIERVTELQELFLTRVGLDIGKVWVADDGAAVAVWTTPESVEAGAVFAEIGPRMAELSGSRLAAQQQMEGLLAPHRPKEPAWFLATVGVSPDHQGKGLGSAVVLPGVEAAERAGVPAFLETSAPRNLPFYERLGFTVTADVEVPEGPRTWCMTRKPGA | (+), HEL (+) | RAJI (+), NALM6 | (+), HEL (+)
040716-F05 (protein, Synthetic polynucleotide encoding a SIR) MALPVTALLLPLALLLHAARPDEIVLTQSPATLSLSPGERATLSCSASSSVSYMHWYQQKPGQAPRLLIYDTSKLASGIPARFSGSGSGTDFTLTISSLEPEDVAVYYCFQGSVYPFTFGQGTKLEIKRGGGGSGGGGSGGGGSQVQLQESGPGLVKPSQTLSLTCTVSGGSISTSGMGVGWIRQHPGKGLEWIGHIWWDDDKRYNPALKSRVTISVDTSKNQFSLKLSSVTAADTAVYYCARMELWSYYFDYWGQGTLVTVSSLEGKPIPNPLLGLDSTGSGEDLKNVFPPEVAVFEPSKAEIAHTQKATLVCLATGFYPDHVELSWWVNGKEVHSGVCTDPQPLKEQPALNDSRYCLSSRLRVSATFWQNPRNHFRCQVQFYGLSENDEWTQDRAKPVTQIVSAEAWGRADCGITSASYHQGVLSATILYEILLGKATLYAVLVSALVLMAMVKRKDSRGRAKRSGSGATNFSLLKQAGDVEENPGPTSTMALPVTALLLPLALLLHAARPDIQMTQSPSSLSASLGERVSLTCRATQELSGYLSWLQQKPDGTIKRLIYAASTLDSGVPKRFSGNRSGSDYSLTISSLESEDFADYYCLQYAIYPYTFGGGTKLEIKGGGGSGGGGSGGGGSEVQLQQSGPELVKPGASVKMSCKASGYTFTSYFIHWVKQKPGQGLEWIGFINPYNDGSKYNEKFKGKATLTSDKSSSTAYMELSSLTSEDSAVYYCTRDDGYYGYAMDYWGQGTSVTVSSTREQKLISEEDGSGIQNPDPAVYQLRDSKSSDKSVCLFTDFDSQTNVSQSKDSDVYITDKCVLDMRSMDFKSNSAVAWSNKSDFACANAFNNSIIPEDTFFPSSDVPCDVKLVEKSFETDTNLNFQNLSVIGFRILLLKVAGFNLLMTLRLWSSRAKRSGSGVKQTLNFDLLKLAGDVESNPGPSRGHMTEYKPTVRLATRDDVPRAVRTLAAAFADYPATRHTVDPDRHIERVTELQELFLTRVGLDIGKVWVADDGAAVAVWTTPESVEAGAVFAEIGPRMAELSGSRLAAQQQMEGLLAPHRPKEPAWFLATVGVSPDHQGKGLGSAVVLPGVEAAERAGVPAFLETSAPRNLPFYERLGFTVTADVEVPEGPRTWCMTRKPGA | – | RAJI (+/−) | –
040716-G02 (protein, Synthetic polynucleotide encoding a SIR) MALPVTALLLPLALLLHAARPDEIVLTQSPATLSLSPGERATLSCSASSSVSYMHWYQQKPGQAPRLLIYDTSKLASGIPARFSGSGSGTDFTLTISSLEPEDVAVYYCFQGSVYPFTFGQGTKLEIKRGGGGSGGGGSGGGGSQVQLQESGPGLVKPSQTLSLTCTVSGGSISTSGMGVGWIRQHPGKGLEWIGHIWWDDDKRYNPALKSRVTISVDTSKNQFSLKLSSVTAADTAVYYCARMELWSYYFDYWGQGTLVTVSSLEGKPIPNPLLGLDSTGSGEDLKNVFPPEVAVFEPSKAEIAHTQKATLVCLATGFYPDHVELSWWVNGKEVHSGVCTDPQPLKEQPALNDSRYCLSSRLRVSATFWQNPRNHFRCQVQFYGLSENDEWTQDRAKPVTQIVSAEAWGRADCGITSASYHQGVLSATILYEILLGKATLYAVLVSALVLMAMVKRKDSRGRAKRSGSGATNFSLLKQAGDVEENPGPTSTMALPVTALLLPLALLLHAARPDTIVLTQSPASLAVSLGQRATISCRASESVDSYGNSFMHWYQQKPGQPPKLLIYLASNLESGVPARFSGSGSRTDFTLTIDPVEADDAATYYCQQNNYDPWTFGGGTKLEIKGGGGSGGGGSGGGGSEVQLQQSGPELVKPGASVKMSCKASGYTFTSYVMHWVKQKPGQGLEWIGYINPYNDGTKYNEKFKGKATLTSDTSSSTAYMELNSLTSEDSAVYFCARPIYFDNDYFDYWGQGTTLKVSSTREQKLISEEDGSGIQNPDPAVYQLRDSKSSDKSVCLFTDFDSQTNVSQSKDSDVYITDKCVLDMRSMDFKSNSAVAWSNKSDFACANAFNNSIIPEDTFFPSSDVPCDVKLVEKSFETDTNLNFQNLSVIGFRILLLKVAGFNLLMTLRLWSSRAKRSGSGVKQTLNFDLLKLAGDVESNPGPSRGHMTEYKPTVRLATRDDVPRAVRTLAAAFADYPATRHTVDPDRHIERVTELQELFLTRVGLDIGKVWVADDGAAVAVWTTPESVEAGAVFAEIGPRMAELSGSRLAAQQQMEGLLAPHRPKEPAWFLATVGVSPDHQGKGLGSAVVLPGVEAAERAGVPAFLETSAPRNLPFYERLGFTVTADVEVPEGPRTWCMTRKPGA | – | RAJI (+/−) | –
